biological target: V158 FcγRIIIa (UniProt P08637); test: competition AlphaScreen
Sequence (P08637 17-208 F176V): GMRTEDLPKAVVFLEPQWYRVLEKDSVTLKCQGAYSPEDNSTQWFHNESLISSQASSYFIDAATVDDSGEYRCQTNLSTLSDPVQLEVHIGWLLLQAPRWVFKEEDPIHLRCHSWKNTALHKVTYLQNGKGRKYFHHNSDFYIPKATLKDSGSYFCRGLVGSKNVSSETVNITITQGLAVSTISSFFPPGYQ

First: S239D/I332E/A330Y H3.69_V2_L3.71 AC10 IgG(1/2) ELLGG
Second: S239D/I332E/H268E H3.69_V2_L3.71 AC10 IgG(1/2) ELLGG
The IC50 of the first is 59-fold higher: 52 nM for the first, 0.882 nM for the second.

Going from “S239D/I332E/S298A H3.69_V2_L3.71 AC10 IgG(1/2) ELLGG” to S239D/I332E H3.69_L3.71 AC10 IgG1, the IC50 rises from 1.28 nM to 5.1 nM (4-fold). The first is the more potent here.

First: S239D/I332E/K326T H3.69_V2_L3.71 AC10 IgG(1/2) ELLGG
Second: S239D/I332E/K246H/S324I H3.69_V2_L3.71 AC10 IgG(1/2) ELLGG
The IC50 of the first is 2-fold lower: 5.26 nM for the first, 10.7 nM for the second. The first is the more potent here.

“S239D/I332E/A330Y/K326E H3.69_V2_L3.71 AC10 IgG(1/2) ELLGG” and “S239D/I332E/K246H/T260H H3.69_V2_L3.71 AC10 IgG(1/2) ELLGG” are within 1.5-fold of each other in IC50: 4 nM for the first, 5.79 nM for the second.

In the case of “S239D/I332E/S324G H3.69_V2_L3.71 AC10 IgG(1/2) ELLGG”, the IC50 is reported as 8.93 nM.

biological target: V158 FcγRIIIa (UniProt P08637); test: competition AlphaScreen; second row

S239D/I332E H3.69_L3.71 AC10 IgG1 was tested, and the IC50 was 0.531 nM.

From patent US20080267976A1
